This is an account of results in the supplement of paper PMC12764529.

± gives the half width of the 95% confidence interval.

Series [1] is described as follows: folding stability dG unfold from trypsin proteolysis; higher = more stable. Summed up: (§1)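 Unfolding free energy was derived, per protease or combined, against a sequence-predicted unfolded-state K50 and a shared folded-state K50, starting from K50 inferred by Bayesian fitting of sequencing counts. Digestion with trypsin and chymotrypsin was carried out on designed mini-proteins under 80 residues without cysteine in a PA-tagged cDNA display construct. Only designs with AlphaFold2 dimer inter-PAE above 15 were kept.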

A short description of series [2]: folding stability dG unfold from chymotrypsin proteolysis; higher = more stable. The essentials:
as §1

Series [3] can be described thus: folding stability dG unfold (combined trypsin and chymotrypsin); higher = more stable. Summed up:
as §1

For “SAGGSQLDEYRKKVEEAIEKAKAEGKPVEKIELTGSEEVAKEVREWLEEQGIPKSVKVTVTPPAINESAGGS [r16_164_JUSTAS]”, the “folding stability dG unfold” value came to 1.81 ± 0.167 kJ/mol in series [1], 4.71 ± 0.0628 kJ/mol in series [2] and 3.47 ± 0.322 kJ/mol in series [3].
The corresponding values for “SAGGSSESKTVTAPDGRVLEFTKSLDPTSSNSRYTLTVYAPESGEPLREAEFSSEEEAEKYIAEGLGSAGGS [r8_450_JUSTAS]” are -0.0475 ± 0.28 kJ/mol, 2.04 ± 0.301 kJ/mol and 1.38 ± 0.285 kJ/mol.
Consider “SAGGSSFTGTVTPVKVDPVNPDLVTVATTLTWPDGTTVPLTRTIPRSVYDSLPENISISVTLSPPSSAGGSA [r2_128_JUSTAS]”, for which the “folding stability dG unfold” value in series [1] is -0.199 ± 0.628 kJ/mol; in series [2], 5.56 ± 0.418 kJ/mol; in series [3], 3.94 ± 0.418 kJ/mol.
On to “SAGGSSGSMSPVLSLFEPGTGVVTYLLKKNDKLYLLVSTGSPGVPPVPSSVSPANLAAGDPVWATAGSAGGS [r16_809_JUSTAS]”, for which the figures for the “folding stability dG unfold” value in series [1], in series [2] and in series [3] were -3.86 ± 1.09 kJ/mol, 3.22 ± 0.544 kJ/mol and 1.48 ± 0.418 kJ/mol, respectively.
In the case of “SAGGSSIKVTITDKNGNEYEIEIPSSLSLEEAKEKVKEYLEKKGYKVESITVENLPPGEAEIKVLKSAGGSA [r2_148_JUSTAS]”, the “folding stability dG unfold” value in series [1] was 0.213 ± 0.247 kJ/mol; in series [2], 1.94 ± 0.879 kJ/mol; in series [3], 1.77 ± 1.21 kJ/mol.
The corresponding values for “SAGGSSITVPYPEGYEITVEVFPNYATITTKTPSSTLTKTVSFSTPVTVKTPSDKPVTINVPSPEVSAGGSA [r2_57_JUSTAS]” are 1.27 ± 0.142 kJ/mol, 2.23 ± 0.502 kJ/mol and 1.82 ± 0.753 kJ/mol.
The matching figures for “SAGGSSKLTFKDPNSDGTYSVTYDPSTGKANVTTSNGSSATISFEGDTITLLESSSVPPSPSNPTTSSAGGS [r16_687_JUSTAS]”: 0.515 ± 0.197 kJ/mol, 1.05 ± 0.389 kJ/mol and 1.02 ± 0.377 kJ/mol.
For the sequence “SAGGSSLTTPDGVKVEVYENPENNTIYVFEKKPDGTYTLKTLTKEGDKVTEVSTKTIKSNEKEKLLSAGGSA [r2_336_JUSTAS]”, the figures for the “folding stability dG unfold” value in series [1], in series [2] and in series [3] were 4.04 ± 0.121 kJ/mol, 7.58 ± 0.339 kJ/mol and 6.37 ± 0.289 kJ/mol, respectively.
The matching figures for “SAGGSSMINLTITITVKDPSTGKVTTIPLNKKLTPEEIEELVKEIIEKIEKENPDKPIEVLKVEINSAGGSA [r2_59_JUSTAS]”: 14.2 ± 0.879 kJ/mol, 10.4 ± 0.502 kJ/mol and 11.8 ± 1.05 kJ/mol.
With “SAGGSSMPLEVTEVKKIGDKIVITLRVPPSVGPLSLGLTIELKSKPVTITSTFDPSTTTATIEVGLSAGGSA [r2_261_JUSTAS]”, the figures for the “folding stability dG unfold” value in series [1], in series [2] and in series [3] were 12.1 ± 0.418 kJ/mol, 14.3 ± 0.753 kJ/mol and 13.6 ± 0.711 kJ/mol, respectively.
In the case of “SAGGSSMQTTVFILPGPEVPVEEVKAKIAKELGLDFETVTFIPAPSREEAEALAAALGVDGIIVEVDSAGGS [r8_245_JUSTAS]”, the “folding stability dG unfold” value is 10.2 ± 0.222 kJ/mol in series [1], 11.14 ± 0.0544 kJ/mol in series [2] and 10.8 ± 0.218 kJ/mol in series [3].
As for “SAGGSSMVDIKPGLVTEIRVETLPNGERVYVVEIPLENGERAVVKISEKFKSEEEKLKAIYEAVSKSAGGSA [r2_347_JUSTAS]”, the “folding stability dG unfold” value in series [1] was determined as 7.14 ± 0.209 kJ/mol; in series [2] it was 10.3 ± 0.163 kJ/mol; in series [3], 9.39 ± 0.502 kJ/mol.
As to “SAGGSSPASVRTSQTTVTDPATGRTRSVTVTTLPDGTTVSTFDSPGGSLVTTTTTPDGTTTTVTADSAGGSA [r2_109_JUSTAS]”, the figures for the “folding stability dG unfold” value in series [1], in series [2] and in series [3] were -0.358 ± 0.544 kJ/mol, 5.77 ± 0.092 kJ/mol and 4.38 ± 0.276 kJ/mol, respectively.
For the sequence “SAGGSSPEELAEKAINEAMEKFGFKEISEIKIQKEDDGVRITIRMPNNGYTIEIDYEDGKITEIQPWSAGGS [r16_171_TrROS]”, the “folding stability dG unfold” value was 6.4 ± 0.213 kJ/mol in series [1], 0.963 ± 0.837 kJ/mol in series [2] and 4.6 ± 0.347 kJ/mol in series [3].
With “SAGGSSPLLLTSSPTPLTLPDGGTVTLTTTRVPGDNADVVTITTTPPGTGTTTVTTLPASTAAATLSAGGSA [r2_366_JUSTAS]”, the figures for the “folding stability dG unfold” value in series [1], in series [2] and in series [3] were 6.14 ± 0.142 kJ/mol, 2.52 ± 0.502 kJ/mol and 4.81 ± 0.285 kJ/mol, respectively.
The matching figures for “SAGGSSPLLSPVTLTREVPASEPMAPEEVEAFAAAVAAEVAAAGMTVDFSVERHPDREVLTVTVTVASSAGG [r13_442_JUSTAS]”: -1.56 ± 0.418 kJ/mol, 2.84 ± 0.192 kJ/mol and 1.56 ± 0.234 kJ/mol.
For “SAGGSSPWLERALEEARELMKNDPPGKEVEAKVKVPYPTPDGQQQPMKFRIRMTYKNNKIKEIEITSAGGSA [r2_173_TrROS]”, the entries for the “folding stability dG unfold” value in series [1], in series [2] and in series [3] were 3.81 ± 0.46 kJ/mol, 2.17 ± 1.05 kJ/mol and 3.44 ± 0.711 kJ/mol, respectively.
The corresponding values for “SAGGSSSLSGLKNVTEEPRLAPDSDEEEVLITYENGYLERREPGVLEFYDPENGKVLSKKNVPYHHSAGGSA [r2_374_JUSTAS]” are -3.37 ± 1.46 kJ/mol, -0.32 ± 1.26 kJ/mol and -1.36 ± 1.26 kJ/mol.
The corresponding values for “SAGGSSSSMVVVTLTFPPDVSPEEVIEKIAATPGVGAQPISYDPATGTFTIRVGSTDPKAVEEVLGSAGGSA [r2_305_JUSTAS]” are 3.67 ± 0.092 kJ/mol, 2.35 ± 0.711 kJ/mol and 3.13 ± 0.31 kJ/mol.
The corresponding values for “SAGGSSVLINHTKTFSSEEEAEKEAEELKEKAKKEGFDEVKVEISKDPSGGTYTLKVTIKKKLPPDLKSAGG [r19_92_JUSTAS]” are 8.22 ± 0.326 kJ/mol, 13.4 ± 0.301 kJ/mol and 12 ± 1.09 kJ/mol.
“SAGGSSVTTTVSEETLPDGLRLLTTTTTTTTVPGKPDLRITTVTTTALDPVTGETTAVGTSTTVVAPSAGGS [r8_65_JUSTAS]”: the “folding stability dG unfold” value in series [1] is 1.3 ± 0.159 kJ/mol; in series [2], 3.33 ± 0.113 kJ/mol; in series [3] it was 2.64 ± 0.36 kJ/mol.
The corresponding values for “SAGGSSYSVAQSPGPARLYSVPQPDGRVVEVDVEELPGGLLRVRVPDDPVPRLFPASLSLADIVSLSAGGSA [r2_338_JUSTAS]” are 2.7 ± 0.0837 kJ/mol, 3.91 ± 0.192 kJ/mol and 3.62 ± 0.134 kJ/mol.
The corresponding values for “SAGGSTIENPNGWRIEIDIIPIKVVYRKDPNGKPKEPVAPPVWIIHIKIEFPDKNGEKKEATFMLFSAGGSA [r2_218_TrROS]” are 11 ± 0.289 kJ/mol, 19.3 ± 0.234 kJ/mol and 17 ± 0.544 kJ/mol.
The matching figures for “SAGGSTLEEIKAAVIKAAEAGEKEAEIEAPLPDGGKLRILKGGVIEFIPEDGVPKRLKISVSEIKVSAGGSA [r2_97_TrMRF]”: -5.02 ± 3.14 kJ/mol, 1.89 ± 1.51 kJ/mol and 0.199 ± 1.09 kJ/mol.
Take “SAGGSTVAKKTTEKDPNSDTTTVTITFPETGVKLTVTVPPGGETTVTLNNGSPPTTLTLPLSVLKLLSAGGS [r8_238_JUSTAS]”: the results for the “folding stability dG unfold” value in series [1], in series [2] and in series [3] were 0.804 ± 0.322 kJ/mol, 3.64 ± 0.28 kJ/mol and 2.56 ± 0.322 kJ/mol, respectively.
On to “SAGGSVDVSYDPSTGVVTVTIPSPTGSIGEEEVERVARELKEKYPNVTVSFTPSPGPAVTVTITIPGGSAGG [r13_291_JUSTAS]”, for which the “folding stability dG unfold” value amounted to 7.16 ± 0.293 kJ/mol in series [1], 9.37 ± 0.176 kJ/mol in series [2] and 8.69 ± 0.31 kJ/mol in series [3].
The matching figures for “SAGGSVEEIAERLAKELAPPDERVEVEVEEIVTDPVVGKIKEVKIKATIYPPDGTTRTVEYTIPYDELSAGG [r13_215_JUSTAS]”: 1.7 ± 0.121 kJ/mol, 2.94 ± 0.117 kJ/mol and 2.56 ± 0.234 kJ/mol.
